In publication PMC6447857, “Structural Study of Agmatine Iminohydrolase From Medicago truncatula, the Second Enzyme of the Agmatine Route of Putrescine Biosynthesis in Plants” (Frontiers in Plant Science, 2019):

Target: the molecule itself
Test: SEC-MALS; in-line SEC (WTC-015S5 column) with MALS detector, 5.5 mg/ml MtAIH solution loaded; monomer to dimer

B1: agmatine iminohydrolase from Medicago truncatula (enzyme)
chain: SNAHGFHMPAEWEPHSQCWIGWPERADNWRDGAVHAQLVFTRVAAAISRFEKVTVCASSAQWENARNQLPDHVRVVEISSNDSWFRDIGPTFVVRRETSKSDDAEHRIAGIDWTFNSWGGLEDGCYCDWSLDSLVKKKILDVERIPRFSHSMVLEGGSIHVDGEGTCITTEECLLNKNRNPHLSKSQIEDELKAYLGVRKVIWLPRGLYGDDDTNGHVDNMCCFVRPGAVLLSWTDDKTDPQYERSEEAYSLFSSVTDANGRKFEVIKLHVPGPLYMTEKEAAGVFQDDGAKPRLPGTRLAASYVNFYIANGAIIAPQFGDKKWDDEAIRVLSKTFPHHEVVGIEGSREIVLSGGNIHCITQQQPAI
notes: Ser-Asn-Ala linker from the vector pMCSG68 that is not cleaved from the expressed protein; agmatine iminohydrolase, Medicago truncatula, UniProt G7JT50, open reading frame MTR_4g112810, encoded protein starting from codon number 11 to the end; theoretical mass of the construct 41.2 kDa; Homodimer by MALS, SAXS and in both crystal forms; In 6NIC the protein holds the small molecule …
  stoichiometry N: 2
